What was measured:
α4β2 = molecular target: T1, α4β2 (Homo sapiens, UniProt P17787+P43681); assay: Ion channel panel (IonWorks Barracuda): α4β2; format: cell-based; conditions: 100% = no change, <100% = inhibition
T1 construct: host or cells: HEK293 or CHO
In short: (§1)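 Peptides were tested in duplicate at final 20 μM and 200 nM, with concentration set by amino acid analysis, in HEPES-buffered saline. They were applied for at least 5 min to HEK293 or CHO cells transfected with each channel. Currents were expressed as % inhibition, 1-(Ipeptide/Icontrol)×100, or % activation, Ipeptide/Icontrol×100, against a channel-matched reference compound.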

NR2A = molecular target: T2, NR2A (Homo sapiens, UniProt Q12879); assay: Ion channel panel (IonWorks Barracuda): NR2A; format: cell-based; conditions: 100% = no change, <100% = inhibition
T2 construct: host or cells: HEK293 or CHO
In short: as §1

α3β4 = molecular target: T3, α3β4 (Homo sapiens, UniProt P30926+P32297); assay: Ion channel panel (IonWorks Barracuda): α3β4; format: cell-based; conditions: 100% = no change, <100% = inhibition
T3 construct: host or cells: HEK293 or CHO
In short: as §1

5HT3a = molecular target: T4, 5HT3a (Homo sapiens, UniProt P46098); assay: Ion channel panel (IonWorks Barracuda): 5HT3a; format: cell-based
T4 construct: host or cells: HEK293 or CHO
T4 sequence (P46098 whole entry, looked up): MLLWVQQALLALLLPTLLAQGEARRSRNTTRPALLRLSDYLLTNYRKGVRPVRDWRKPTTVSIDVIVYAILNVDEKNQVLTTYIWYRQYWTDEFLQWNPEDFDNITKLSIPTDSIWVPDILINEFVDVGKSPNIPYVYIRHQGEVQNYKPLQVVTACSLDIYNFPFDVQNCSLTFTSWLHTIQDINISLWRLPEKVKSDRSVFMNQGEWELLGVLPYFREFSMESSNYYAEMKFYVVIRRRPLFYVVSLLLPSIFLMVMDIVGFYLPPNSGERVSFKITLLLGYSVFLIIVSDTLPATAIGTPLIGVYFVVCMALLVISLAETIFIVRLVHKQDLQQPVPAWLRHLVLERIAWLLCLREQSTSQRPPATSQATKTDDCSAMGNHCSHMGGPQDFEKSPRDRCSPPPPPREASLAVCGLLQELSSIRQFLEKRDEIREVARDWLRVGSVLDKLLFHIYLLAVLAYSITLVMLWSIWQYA
In short: as §1

NR2B = molecular target: T5, NR2B (Homo sapiens, UniProt Q13224); assay: Ion channel panel (IonWorks Barracuda): NR2B; format: cell-based; conditions: 100% = no change, <100% = inhibition
T5 construct: host or cells: HEK293 or CHO
In short: as §1

Kir2.1 = molecular target: T6, Kir2.1 (Homo sapiens, UniProt P63252); assay: Ion channel panel (IonWorks Barracuda): Kir2.1; format: cell-based; conditions: 100% = no change, <100% = inhibition
T6 construct: host or cells: HEK293 or CHO
In short: as §1

Kv1.2 = molecular target: T7, Kv1.2 (Homo sapiens, UniProt P16389); assay: cell-based; format: cell-based; conditions: 100% = no change, <100% = inhibition
T7 construct: host or cells: HEK293 or CHO
In short: as §1

Kv1.3 = molecular target: T8, Kv1.3 (Homo sapiens, UniProt P22001); assay: cell-based; format: cell-based; conditions: 100% = no change, <100% = inhibition
T8 construct: host or cells: HEK293 or CHO
In short: as §1

Kv1.1 = molecular target: T9, Kv1.1 (Homo sapiens, UniProt Q09470); assay: cell-based; format: cell-based; conditions: 100% = no change, <100% = inhibition
T9 construct: host or cells: HEK293 or CHO
In short: as §1

TRPA1 = molecular target: T10, TRPA1 (Homo sapiens, UniProt O75762); assay: Ion channel panel (IonWorks Barracuda): TRPA1; format: cell-based; conditions: 100% = no change, <100% = inhibition
T10 construct: host or cells: HEK293 or CHO
In short: as §1

GABA = assay: Ion channel panel (IonWorks Barracuda): GABA; format: cell-based; conditions: 100% = no change, <100% = inhibition
In short: as §1

Nav1.7 = molecular target: T11, Nav1.7 (Homo sapiens, UniProt Q15858); assay: cell-based; format: cell-based; conditions: 100% = no change; for Activity of Nav1.7 with peptide, expressed as a percentage of the reference compound: peptide at 0.2 μM; for Activity of Nav1.7 with peptide (percentage of the reference compound): peptide at 20 μM
T11 construct: host or cells: HEK293 or CHO
T11 sequence (Q15858 whole entry): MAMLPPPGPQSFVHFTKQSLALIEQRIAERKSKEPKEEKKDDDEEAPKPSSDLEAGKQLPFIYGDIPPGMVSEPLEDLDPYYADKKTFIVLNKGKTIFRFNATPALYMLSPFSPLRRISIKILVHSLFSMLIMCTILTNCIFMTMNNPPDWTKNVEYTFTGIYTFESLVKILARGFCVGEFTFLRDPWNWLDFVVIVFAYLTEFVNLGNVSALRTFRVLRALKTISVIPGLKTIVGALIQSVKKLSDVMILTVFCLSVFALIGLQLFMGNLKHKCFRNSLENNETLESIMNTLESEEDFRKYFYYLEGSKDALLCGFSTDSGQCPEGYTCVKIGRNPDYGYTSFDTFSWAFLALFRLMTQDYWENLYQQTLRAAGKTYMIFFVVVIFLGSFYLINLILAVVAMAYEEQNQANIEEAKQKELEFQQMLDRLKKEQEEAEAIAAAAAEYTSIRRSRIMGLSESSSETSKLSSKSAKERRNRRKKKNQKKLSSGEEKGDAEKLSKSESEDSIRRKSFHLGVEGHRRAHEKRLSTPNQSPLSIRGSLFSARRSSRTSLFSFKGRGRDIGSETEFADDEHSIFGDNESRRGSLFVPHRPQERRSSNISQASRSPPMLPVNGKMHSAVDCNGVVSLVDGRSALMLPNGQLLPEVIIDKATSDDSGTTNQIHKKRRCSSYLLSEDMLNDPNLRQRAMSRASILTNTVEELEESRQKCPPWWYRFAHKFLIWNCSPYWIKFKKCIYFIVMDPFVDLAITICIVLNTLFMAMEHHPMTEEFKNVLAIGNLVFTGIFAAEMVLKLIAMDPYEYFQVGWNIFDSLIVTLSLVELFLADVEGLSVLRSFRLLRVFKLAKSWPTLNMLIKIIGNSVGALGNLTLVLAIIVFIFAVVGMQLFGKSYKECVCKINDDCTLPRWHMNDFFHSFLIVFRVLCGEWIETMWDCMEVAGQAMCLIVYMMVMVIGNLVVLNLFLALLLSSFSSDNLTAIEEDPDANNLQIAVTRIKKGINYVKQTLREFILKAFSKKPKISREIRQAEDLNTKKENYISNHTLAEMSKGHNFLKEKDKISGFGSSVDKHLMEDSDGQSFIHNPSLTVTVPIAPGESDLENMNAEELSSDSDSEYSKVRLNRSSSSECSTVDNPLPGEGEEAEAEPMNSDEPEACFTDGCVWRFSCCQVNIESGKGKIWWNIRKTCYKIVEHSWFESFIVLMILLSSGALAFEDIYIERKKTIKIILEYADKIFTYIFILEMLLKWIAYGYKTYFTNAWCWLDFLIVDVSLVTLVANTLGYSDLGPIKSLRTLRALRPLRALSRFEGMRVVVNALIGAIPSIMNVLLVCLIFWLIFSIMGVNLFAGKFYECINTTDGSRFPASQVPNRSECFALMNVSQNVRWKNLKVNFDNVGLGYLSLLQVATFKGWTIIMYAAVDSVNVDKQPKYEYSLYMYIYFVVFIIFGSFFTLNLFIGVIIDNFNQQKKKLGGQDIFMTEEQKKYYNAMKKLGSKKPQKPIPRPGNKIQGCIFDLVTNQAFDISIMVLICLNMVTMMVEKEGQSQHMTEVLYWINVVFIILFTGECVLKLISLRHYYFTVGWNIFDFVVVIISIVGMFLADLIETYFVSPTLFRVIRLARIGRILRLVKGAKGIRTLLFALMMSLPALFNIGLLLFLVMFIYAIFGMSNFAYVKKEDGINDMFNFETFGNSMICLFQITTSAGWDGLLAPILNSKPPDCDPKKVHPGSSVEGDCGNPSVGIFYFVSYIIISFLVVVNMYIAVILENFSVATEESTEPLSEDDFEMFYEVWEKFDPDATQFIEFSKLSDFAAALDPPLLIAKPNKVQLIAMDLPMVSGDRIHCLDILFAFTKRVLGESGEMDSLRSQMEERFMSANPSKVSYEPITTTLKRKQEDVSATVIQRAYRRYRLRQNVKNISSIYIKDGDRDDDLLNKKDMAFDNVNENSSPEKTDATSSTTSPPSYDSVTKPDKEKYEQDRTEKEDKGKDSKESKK

Cav2.1 = molecular target: T12, Cav2.1 (Homo sapiens, UniProt O00555); assay: cell-based; conditions: 100% = no change, <100% = inhibition
T12 construct: host or cells: HEK293 or CHO
In short: as §1

Cav2.2 = molecular target: T13, Cav2.2 (Homo sapiens, UniProt Q00975); assay: cell-based; conditions: 100% = no change, <100% = inhibition
T13 construct: host or cells: HEK293 or CHO
In short: as §1

Kv2.1 = molecular target: T14, Kv2.1 (Homo sapiens, UniProt Q14721); assay: cell-based; conditions: 100% = no change, <100% = inhibition
T14 construct: host or cells: HEK293 or CHO
In short: as §1

Nav1.5 = Nav1.5 (Homo sapiens, UniProt Q14524); assay: in vitro; conditions: 100% = no change; for Activity of Nav1.5 with peptide, expressed as a percentage of the reference compound: peptide at 0.2 μM; for Activity of Nav1.5 with peptide (percentage of the reference compound): peptide at 20 μM
Chain of Nav1.5 (Q14524 whole entry): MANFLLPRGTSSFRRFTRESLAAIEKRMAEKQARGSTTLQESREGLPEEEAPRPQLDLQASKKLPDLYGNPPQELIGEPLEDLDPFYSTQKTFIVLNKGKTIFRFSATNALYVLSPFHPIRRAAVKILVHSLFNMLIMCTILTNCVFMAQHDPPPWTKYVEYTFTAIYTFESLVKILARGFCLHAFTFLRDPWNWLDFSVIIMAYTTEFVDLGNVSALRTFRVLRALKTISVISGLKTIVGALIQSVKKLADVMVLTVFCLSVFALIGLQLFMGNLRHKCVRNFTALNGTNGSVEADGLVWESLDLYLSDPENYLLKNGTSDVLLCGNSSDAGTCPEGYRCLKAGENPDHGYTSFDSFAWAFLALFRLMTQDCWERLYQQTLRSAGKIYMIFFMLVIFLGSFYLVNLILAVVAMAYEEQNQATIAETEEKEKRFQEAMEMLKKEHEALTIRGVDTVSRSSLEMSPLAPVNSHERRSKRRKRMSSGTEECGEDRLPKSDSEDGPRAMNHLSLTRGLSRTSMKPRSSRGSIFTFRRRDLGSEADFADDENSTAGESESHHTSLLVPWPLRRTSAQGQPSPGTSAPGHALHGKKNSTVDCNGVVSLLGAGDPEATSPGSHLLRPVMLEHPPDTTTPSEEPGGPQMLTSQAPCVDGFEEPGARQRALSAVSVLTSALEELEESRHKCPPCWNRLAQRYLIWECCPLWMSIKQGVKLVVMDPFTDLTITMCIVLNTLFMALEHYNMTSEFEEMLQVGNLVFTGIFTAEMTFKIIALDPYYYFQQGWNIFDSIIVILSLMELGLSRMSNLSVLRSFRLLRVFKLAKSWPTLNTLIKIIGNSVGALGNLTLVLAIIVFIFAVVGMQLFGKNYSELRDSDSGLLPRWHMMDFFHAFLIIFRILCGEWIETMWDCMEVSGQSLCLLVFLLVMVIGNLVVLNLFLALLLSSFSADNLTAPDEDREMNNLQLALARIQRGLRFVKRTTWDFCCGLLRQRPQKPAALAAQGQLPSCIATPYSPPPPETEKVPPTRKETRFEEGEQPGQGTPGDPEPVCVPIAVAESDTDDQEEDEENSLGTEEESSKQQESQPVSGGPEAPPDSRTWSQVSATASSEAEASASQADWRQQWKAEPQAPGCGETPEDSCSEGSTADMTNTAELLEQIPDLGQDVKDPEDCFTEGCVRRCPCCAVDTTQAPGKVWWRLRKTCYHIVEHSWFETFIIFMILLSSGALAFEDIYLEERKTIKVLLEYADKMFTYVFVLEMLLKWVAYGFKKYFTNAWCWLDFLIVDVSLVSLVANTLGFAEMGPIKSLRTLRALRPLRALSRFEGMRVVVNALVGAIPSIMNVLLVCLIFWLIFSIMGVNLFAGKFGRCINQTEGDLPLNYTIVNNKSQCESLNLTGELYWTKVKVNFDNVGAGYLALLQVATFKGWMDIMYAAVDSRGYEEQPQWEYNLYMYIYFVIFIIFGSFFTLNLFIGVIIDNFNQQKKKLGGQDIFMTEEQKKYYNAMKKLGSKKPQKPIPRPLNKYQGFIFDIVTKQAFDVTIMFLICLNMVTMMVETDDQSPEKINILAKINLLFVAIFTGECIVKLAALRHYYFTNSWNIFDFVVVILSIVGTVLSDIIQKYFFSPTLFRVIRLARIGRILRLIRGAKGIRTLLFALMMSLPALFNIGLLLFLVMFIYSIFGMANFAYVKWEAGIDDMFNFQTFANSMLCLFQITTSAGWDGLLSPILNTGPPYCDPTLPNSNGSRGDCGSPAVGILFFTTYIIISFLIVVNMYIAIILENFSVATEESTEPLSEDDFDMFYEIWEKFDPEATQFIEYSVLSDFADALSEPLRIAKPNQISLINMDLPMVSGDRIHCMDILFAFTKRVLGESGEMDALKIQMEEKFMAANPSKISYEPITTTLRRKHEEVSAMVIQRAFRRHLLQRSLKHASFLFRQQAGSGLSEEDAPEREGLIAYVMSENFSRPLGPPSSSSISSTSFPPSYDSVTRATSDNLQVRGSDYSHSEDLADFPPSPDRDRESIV
In short: as §1

hERG = hERG (Homo sapiens, UniProt Q12809); assay: in vitro; conditions: 100% = no change, <100% = inhibition
In short: as §1

TRPV1 = molecular target: T15, TRPV1 (Homo sapiens, UniProt Q8NER1); assay: Ion channel panel (IonWorks Barracuda): TRPV1; format: cell-based; conditions: 100% = no change, <100% = inhibition
T15 construct: host or cells: HEK293 or CHO
T15 sequence (Q8NER1 whole entry): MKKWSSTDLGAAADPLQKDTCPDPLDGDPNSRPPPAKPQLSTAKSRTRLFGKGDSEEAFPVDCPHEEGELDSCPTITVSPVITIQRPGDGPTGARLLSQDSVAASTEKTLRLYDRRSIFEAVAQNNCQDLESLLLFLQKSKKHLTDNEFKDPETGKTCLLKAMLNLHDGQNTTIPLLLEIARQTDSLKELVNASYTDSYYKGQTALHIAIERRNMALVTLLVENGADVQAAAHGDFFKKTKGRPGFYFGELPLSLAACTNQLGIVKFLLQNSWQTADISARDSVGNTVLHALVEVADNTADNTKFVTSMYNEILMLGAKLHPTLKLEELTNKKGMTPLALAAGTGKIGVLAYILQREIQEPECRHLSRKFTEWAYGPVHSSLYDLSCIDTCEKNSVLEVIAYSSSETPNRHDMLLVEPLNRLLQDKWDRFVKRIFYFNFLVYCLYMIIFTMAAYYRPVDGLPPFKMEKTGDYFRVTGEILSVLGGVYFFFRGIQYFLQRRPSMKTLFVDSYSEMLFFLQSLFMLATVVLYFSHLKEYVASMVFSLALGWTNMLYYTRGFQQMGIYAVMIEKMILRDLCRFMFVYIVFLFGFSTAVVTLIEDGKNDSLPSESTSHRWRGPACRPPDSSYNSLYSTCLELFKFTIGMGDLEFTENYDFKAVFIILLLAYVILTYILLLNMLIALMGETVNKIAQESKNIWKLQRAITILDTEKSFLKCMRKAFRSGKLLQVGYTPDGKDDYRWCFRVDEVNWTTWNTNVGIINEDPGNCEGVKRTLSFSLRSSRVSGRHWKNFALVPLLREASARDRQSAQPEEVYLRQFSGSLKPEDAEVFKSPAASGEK
In short: as §1

[1] = first of two Nav1.7 columns (probably TP1)
[2] = second of two Nav1.7 columns (probably TP2)
[3] = first of two Nav1.5 columns (probably TP1)
[4] = second of two Nav1.5 columns (probably TP2)

9 (GSGCFGYKCDYYKGCCSGYVCSPTWKWCVRPGPGR) [compound 9]
Activity of a4b2 with peptide, expressed as a percentage of the reference compound (α4β2; peptide at 0.2 μM): 96%
Activity of a4b2 with peptide (percentage of the reference compound) (α4β2; peptide at 20 μM): 81%
Activity of NR2A with peptide, expressed as a percentage of the reference compound (NR2A; peptide at 0.2 μM): 89%
Activity of NR2A with peptide (percentage of the reference compound) (NR2A; peptide at 20 μM): 87%
Activity of a3b4 with peptide, expressed as a percentage of the reference compound (α3β4; peptide at 0.2 μM): 105%
Activity of a3b4 with peptide (percentage of the reference compound) (α3β4; peptide at 20 μM): 103%
Activity of 5HT3a with peptide (percentage of the reference compound) (5HT3a): 73%
Activity of 5HT3a with peptide, expressed as a percentage of the reference compound (5HT3a): 107%
Activity of NR2B with peptide, expressed as a percentage of the reference compound (NR2B; peptide at 0.2 μM): 77%
Activity of NR2B with peptide (percentage of the reference compound) (NR2B; peptide at 20 μM): 85%
Activity of Kir2.1 with peptide, expressed as a percentage of the reference compound (Kir2.1; peptide at 0.2 μM): 105%
Activity of Kir2.1 with peptide (percentage of the reference compound) (Kir2.1; peptide at 20 μM): 103%
Activity of Kv1.2 with peptide, expressed as a percentage of the reference compound (Kv1.2; peptide at 0.2 μM): 120%
Activity of Kv1.2 with peptide (percentage of the reference compound) (Kv1.2; peptide at 20 μM): 104%
Activity of Kv1.3 with peptide, expressed as a percentage of the reference compound (Kv1.3; peptide at 0.2 μM): 107%
Activity of Kv1.3 with peptide (percentage of the reference compound) (Kv1.3; peptide at 20 μM): 89%
Activity of Kv1.1 with peptide, expressed as a percentage of the reference compound (Kv1.1; peptide at 0.2 μM): 103%
Activity of Kv1.1 with peptide (percentage of the reference compound) (Kv1.1; peptide at 20 μM): 97%
Activity of TRPA1 with peptide, expressed as a percentage of the reference compound (TRPA1; peptide at 0.2 μM): 131%
Activity of TRPA1 with peptide (percentage of the reference compound) (TRPA1; peptide at 20 μM): 112%
Activity of GABA with peptide, expressed as a percentage of the reference compound (GABA; peptide at 0.2 μM): 99%
Activity of GABA with peptide (percentage of the reference compound) (GABA; peptide at 20 μM): 98%
Activity of Nav1.7 with peptide, expressed as a percentage of the reference compound (Nav1.7; [1]): 108%
Activity of Nav1.7 with peptide, expressed as a percentage of the reference compound (Nav1.7; [2]): 110%
Activity of Nav1.7 with peptide (percentage of the reference compound) (Nav1.7; [1]): 94%
Activity of Nav1.7 with peptide (percentage of the reference compound) (Nav1.7; [2]): 114%
Activity of Cav2.1 with peptide, expressed as a percentage of the reference compound (Cav2.1; peptide at 0.2 μM): 111%
Activity of Cav2.1 with peptide (percentage of the reference compound) (Cav2.1; peptide at 20 μM): 108%
Activity of Cav2.2 with peptide, expressed as a percentage of the reference compound (Cav2.2; peptide at 0.2 μM): 109%
Activity of Cav2.2 with peptide (percentage of the reference compound) (Cav2.2; peptide at 20 μM): 102%
Activity of Kv2.1 with peptide, expressed as a percentage of the reference compound (Kv2.1; peptide at 0.2 μM): 112%
Activity of Kv2.1 with peptide (percentage of the reference compound) (Kv2.1; peptide at 20 μM): 99%
Activity of Nav1.5 with peptide, expressed as a percentage of the reference compound (Nav1.5; [3]): 104%
Activity of Nav1.5 with peptide, expressed as a percentage of the reference compound (Nav1.5; [4]): 103%
Activity of Nav1.5 with peptide (percentage of the reference compound) (Nav1.5; [3]): 109%
Activity of Nav1.5 with peptide (percentage of the reference compound) (Nav1.5; [4]): 110%
Activity of hERG with peptide, expressed as a percentage of the reference compound (hERG; peptide at 0.2 μM): 104%
Activity of hERG with peptide (percentage of the reference compound) (hERG; peptide at 20 μM): 98%
Activity of TRPV1 with peptide, expressed as a percentage of the reference compound (TRPV1; peptide at 0.2 μM): 112%
Activity of TRPV1 with peptide (percentage of the reference compound) (TRPV1; peptide at 20 μM): 79%

From patent US20200262877A1, “ION CHANNEL-BINDING PEPTIDES AND METHODS OF USE THEREOF” (priority 2017, published 2020)
